Laboratory results from patent US20190375820A1 (ACCELERON PHARMA, published 2019).
Blank lines part the entries; values can stand above or below the binder they belong to.

Legend:
activin C = target: T1, activin C (UniProt P55103 237-352); assay: SPR (Biacore); receptor-Fc captured via anti-Fc antibody, ligand injected
T1 sequence (looked up): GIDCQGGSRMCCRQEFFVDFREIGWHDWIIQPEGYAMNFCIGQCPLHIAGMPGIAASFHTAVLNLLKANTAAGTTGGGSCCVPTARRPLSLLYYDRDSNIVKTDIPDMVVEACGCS
Experimental: (§1) Ligands were injected and allowed to flow over the captured receptor protein.

activin AC = target: T2, activin AC (UniProt P08476 311-426; P55103 237-352); assay: as above
T2 sequence (looked up) 1: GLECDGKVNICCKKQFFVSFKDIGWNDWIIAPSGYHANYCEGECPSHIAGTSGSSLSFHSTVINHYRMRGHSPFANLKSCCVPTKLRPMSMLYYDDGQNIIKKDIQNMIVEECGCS
T2 sequence (looked up) 2: T1 sequence (looked up)
Experimental: as §1

- binding result (activin C): no binding
B1: ALK7-Fc homodimer (Fc fusion)
chain: LSPGLKCVCLLCDSSNFTCQTEGACWASVMLTNGKEQVIKSCVSLPELNAQVFCHSSNNVTKTECCFTDFCNNITLHLPTASPNAPKLGPME
notes: also called ALK7-Fc homodimeric complex; ALK7 homodimer; not shown: linker and Fc domain

- Kd (activin C): 6.9 nM
- koff (activin C): 0.0024 s⁻¹
- kon (activin C): 350000 M⁻¹ s⁻¹
- Kd (activin AC): 0.22 nM
- koff (activin AC): 0.00057 s⁻¹
- kon (activin AC): 2.6e+06 M⁻¹ s⁻¹
B2: ActRIIB-Fc:ALK7-Fc heterodimer (Fc fusion)
chain 1: GRGEAETRECIYYNANWELERTNQSGLERCEGEQDKRLHCYASWRNSSGTIELVKKGCWLDDFNCYDRQECVATEENPQVYFCCCEGNFCNERFTHLPEAGGPEVTYEPPPTAPTGGGTHTCPPCPAPELLGGPSVFLFPPKPKDTLMISRTPEVTCVVVDVSHEDPEVKFNWYVDGVEVHNAKTKPREEQYNSTYRVVSVLTVLHQDWLNGKEYKCKVSNKALPAPIEKTISKAKGQPREPQVYTLPPSRKEMTKNQVSLTCLVKGFYPSDIAVEWESNGQPENNYKTTPPVLKSDGSFFLYSKLTVDKSRWQQGNVFSCSVMHEALHNHYTQKSLSLSPGK
chain 2: GLKCVCLLCDSSNFTCQTEGACWASVMLTNGKEQVIKSCVSLPELNAQVFCHSSNNVTKTECCFTDFCNNITLHLPTASPNAPKLGPMETGGGTHTCPPCPAPELLGGPSVFLFPPKPKDTLMISRTPEVTCVVVDVSHEDPEVKFNWYVDGVEVHNAKTKPREEQYNSTYRVVSVLTVLHQDWLNGKEYKCKVSNKALPAPIEKTISKAKGQPREPQVYTLPPSREEMTKNQVSLTCLVKGFYPSDIAVEWESNGQPENNYDTTPPVLDSDGSFFLYSDLTVDKSRWQQGNVFSCSVMHEALHNHYTQKSLSLSPG
notes: The receptor parts are the same in both pairs; only the Fc domains differ; also called ALK7-Fc:ActRIIB-Fc heterodimer; ActRIIB-Fc:ALK7-Fc heterodimeric complex

- Kd (activin AC): 0.16 nM
- koff (activin AC): 0.0031 s⁻¹
- kon (activin AC): 2e+07 M⁻¹ s⁻¹
B3: ActRIIB-Fc homodimer (Fc fusion)
chain: SGRGEAETRECIYYNANWELERTNQSGLERCEGEQDKRLHCYASWRNSSGTIELVKKGCWLDDFNCYDRQECVATEENPQVYFCCCEGNFCNERFTHLPEAGGPEVTYEPPPTAPTLLT
notes: also called ActRIIB-Fc homodimeric complex; ActRIIB homodimer; not shown: linker and Fc domain
